Consider eight molecules from patent publication US20240261333A1, “NOVEL TARGETS FOR ENHANCING ANTI-TUMOR IMMUNITY” (THE BROAD INSTITUTE, INC., priority 2021, published 2024).

For the experiment, the target named is T1, B3GNT2 (Homo sapiens, UniProt Q9NY97).
T1 construct: The respective ORFs of candidate genes [CD274 (NM_014143), MCL1 (NM_021960), JUNB (NM_002229), and B3GNT2 (NM_006577)] were synthesized; expressed in transfected cells; host or cells: A375 melanoma cells (lentiviral ORF overexpression)
T1 sequence (Q9NY97 1-397): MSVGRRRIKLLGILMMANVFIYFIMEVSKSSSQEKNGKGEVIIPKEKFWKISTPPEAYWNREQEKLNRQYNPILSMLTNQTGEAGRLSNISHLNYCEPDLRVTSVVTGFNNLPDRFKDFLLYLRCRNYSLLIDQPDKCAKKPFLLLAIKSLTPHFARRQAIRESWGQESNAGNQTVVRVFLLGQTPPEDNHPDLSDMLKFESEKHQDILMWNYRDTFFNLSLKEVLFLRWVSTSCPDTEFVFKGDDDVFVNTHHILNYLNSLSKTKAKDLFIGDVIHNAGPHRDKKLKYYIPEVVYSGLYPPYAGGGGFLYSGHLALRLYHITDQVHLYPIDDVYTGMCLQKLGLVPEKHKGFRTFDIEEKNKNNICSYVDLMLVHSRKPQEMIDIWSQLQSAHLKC
The experiment is described as follows: Co-IP of FLAG-tagged B3GNT2 followed by mass spectrometry. The class given is cell-based. The arrangement: C-term IgG / C-term flag: unit not given here. Conditions: mass spectrometry count, unit not given; for C-term flag / N-term FLAG: Co-IP with FLAG antibody; for C-term flag / C-term IgG: C-terminally FLAG-tagged B3GNT2; for N-term FLAG / N-term IgG: N-terminally FLAG-tagged B3GNT2; for C-term IgG / N-term IgG: Co-IP with IgG control antibody. In short, it runs like this: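 FLAG-tagged B3GNT2 immunoprecipitated from cell lysate (HEPES, 1% Triton X-100, 150 mM NaCl) with anti-FLAG versus […], overnight at 4° C, then captured on Protein A/G magnetic beads for 4 h. Two biological replicates per condition. Peptides fractionated and analyzed by nano-LC on an Orbitrap Elite in data-dependent mode.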

B1: DNAJA3 (protein)
chain: GVSLTGTKHNPFICTASFHTSAPLAKEDYYQILGVPRNASQKEIKKAYYQLAKKYHPDTNKDDPKAKEKFSQLAEAYEVLSDEVKRKQYDAYGSAGFDPGASGSQHSYWKGGPTVDPEELFRKIFGEFSSSSFGDFQTVFDQPQEYFMELTFNQAAKGVNKEFTVNIMDTCERCNGKGNEPGTKVQHCHYCGGSGMETINTGPFVMRSTCRRCGGRGSIIISPCVVCRGAGQAKQKKRVMIPVPAGVEDGQTVRMPVGKREIFITFRVQKSPVFRRDGADIHSDLFISIAQALLGGTARAQGLYETINVTIPPGTQTDQKIRMGGKGIPRINSYGYGDHYIHIKIRVPKRLTSRQQSLILSYAEDETDVEGTVNGVTLTSSGKRSTGN
Take B1: the C-term flag amounted to 2, the “N-term FLAG” value is 0, the “C-term IgG” value is 0 and the “N-term IgG” value is 0.

B2: UBTF (protein)
chain: MNGEADCPTDLEMAAPKGQDRWSQEDMLTLLECMKNNLPSNDSSKFKTTESHMDWEKVAFKDFSGDMCKLKWVEISNEVRKFRTLTELILDAQEHVKNPYKGKKLKKHPDFPKKPLTPYFRFFMEKRAKYAKLHPEMSNLDLTKILSKKYKELPEKKKMKYIQDFQREKQEFERNLARFREDHPDLIQNAKKSDIPEKPKTPQQLWYTHEKKVYLKVRPDEIMRDYIQKHPELNISEEGITKSTLTKAERQLKDKFDGRPTKPPPNSYSLYCAELMANMKDVPSTERMVLCSQQWKLLSQKEKDAYHKKCDQKKKDYEVELLRFLESLPEEEQQRVLGEEKMLNINKKQATSPASKKPAQEGGKGGSEKPKRPVSAMFIFSEEKRRQLQEERPELSESELTRLLARMWNDLSEKKKAKYKAREAALKAQSERKPGGEREERGKLPESPKRAEEIWQQSVIGDYLARFKNDRVKALKAMEMTWNNMEKKEKLMWIKKAAEDQKRYERELSEMRAPPAATNSSKKMKFQGEPKKPPMNGYQKFSQELLSNGELNHLPLKERMVEIGSRWQRISQSQKEHYKKLAEEQQKQYKVHLDLWVKSLSPQDRAAYKEYISNKRKSMTKLRGPNPKSSRTTLQSKSESEEDDEEDEDDEDEDEEEEDDENGDSSEDGGDSSESSSEDESEDGDENEEDDEDEDDDEDDDEDEDNESEGSSSSSSSSGDSSDSDSN
For the molecule B2, the C-term flag is given as 2, the “N-term FLAG” value was found to be 0, the “C-term IgG” value is listed as 0 and the “N-term IgG” value was 0.

B3: PDIA4 (protein)
chain: VAGAEGPDEDSSNRENAIEDEEEEEEEDDDEEEDDLEVKEENGVLVLNDANFDNFVADKDTVLLEFYAPWCGHCKQFAPEYEKIANILKDKDPPIPVAKIDATSASVLASRFDVSGYPTIKILKKGQAVDYEGSRTQEEIVAKVREVSQPDWTPPPEVTLVLTKENFDEVVNDADIILVEFYAPWCGHCKKLAPEYEKAAKELSKRSPPIPLAKVDATAETDLAKRFDVSGYPTLKIFRKGRPYDYNGPREKYGIVDYMIEQSGPPSKEILTLKQVQEFLKDGDDVIIIGVFKGESDPAYQQYQDAANNLREDYKFHHTFSTEIAKFLKVSQGQLVVMQPEKFQSKYEPRSHMMDVQGSTQDSAIKDFVLKYALPLVGHRKVSNDAKRYTRRPLVVVYYSVDFSFDYRAATQFWRSKVLEVAKDFPEYTFAIADEEDYAGEVKDLGLSESGEDVNAAILDESGKKFAMEPEEFDSDTLREFVTAFKKGKLKPVIKSQPVPKNNKGPVKVVVGKTFDSIVMDPKKDVLIEFYAPWCGHCKQLEPVYNSLAKKYKGQKGLVIAKMDATANDVPSDRYKVEGFPTIYFAPSGDKKNPVKFEGGDRDLEHLSKFIEEHATKLSRTKEEL
In the case of B3, the C-term flag is given as 9, the “N-term FLAG” value is 0, the “C-term IgG” value was 0 and the “N-term IgG” value amounted to 0.

B4: ATAD3A (protein)
chain: SWLFGINKGPKGEGAGPPPPLPPAQPGAEGGGDRGLGDRPAPKDKWSNFDPTGLERAAKAARELEHSRYAKDALNLAQMQEQTLQLEQQSKLKEYEAAVEQLKSEQIRAQAEERRKTLSEETRQHQARAQYQDKLARQRYEDQLKQQQLLNEENLRKQEESVQKQEAMRRATVEREMELRHKNEMLRVEAEARARAKAERENADIIREQIRLKAAEHRQTVLESIRTAGTLFGEGFRAFVTDWDKVTATVAGLTLLAVGVYSAKNATLVAGRFIEARLGKPSLVRETSRITVLEALRHPIQVSRRLLSRPQDALEGVVLSPSLEARVRDIAIATRNTKKNRSLYRNILMYGPPGTGKTLFAKKLALHSGMDYAIMTGGDVAPMGREGVTAMHKLFDWANTSRRGLLLFVDEADAFLRKRATEKISEDLRATLNAFLYRTGQHSNKFMLVLASNQPEQFDWAINDRINEMVHFDLPGQEERERLVRMYFDKYVLKPATEGKQRLKLAQFDYGRKCSEVARLTEGMSGREIAQLAVSWQATAYASEDGVLTEAMMDTRVQDAVQQHQQKMCWLKAEGPGRGDEPSPS
Regarding B4, the C-term flag worked out at 9, the “N-term FLAG” value came out at 0, the “C-term IgG” value was determined as 0 and the “N-term IgG” value is recorded as 0.

B5: IFI16 (protein)
chain: MGKKYKNIVLLKGLEVINDYHFRMVKSLLSNDLKLNLKMREEYDKIQIADLMEEKFRGDAGLGKLIKIFEDIPTLEDLAETLKKEKLKVKGPALSRKRKKEVDATSPAPSTSSTVKTEGAEATPGAQKRKKSTKEKAGPKGSKVSEEQTQPPSPAGAGMSTAMGRSPSPKTSLSAPPNSSSTENPKTVAKCQVTPRRNVLQKRPVIVKVLSTTKPFEYETPEMEKKIMFHATVATQTQFFHVKVLNTSLKEKFNGKKIIIISDYLEYDSLLEVNEESTVSEAGPNQTFEVPNKIINRAKETLKIDILHKQASGNIVYGVFMLHKKTVNQKTTIYEIQDDRGKMDVVGTGQCHNIPCEEGDKLQLFCFRLRKKNQMSKLISEMHSFIQIKKKTNPRNNDPKSMKLPQEQRQLPYPSEASTTFPESHLRTPQMPPTTPSSSFFTKKSEDTISKMNDFMRMQILKEGSHFPGPFMTSIGPAESHPHTPQMPPSTPSSSFLTTLKPRLKTEPEEVSIEDSAQSDLKEVMVLNATESFVYEPKEQKKMFHATVATENEVFRVKVFNIDLKEKFTPKKIIAIANYVCRNGFLEVYPFTLVADVNADRNMEIPKGLIRSASVTPKINQLCSQTKGSFVNGVFEVHKKNVRGEFTYYEIQDNTGKMEVVVHGRLTTINCEEGDKLKLTCFELAPKSGNTGELRSVIHSHIKVIKTRKNKKDILNPDSSMETSPDFFF
For B5, the C-term flag is 2, the “N-term FLAG” value is reported as 0, the “C-term IgG” value was 0 and the “N-term IgG” value is reported as 0.

B6: RCN1 (protein)
chain: KPTVRKERVVRPDSELGERPPEDNQSFQYDHEAFLGKEDSKTFDQLTPDESKERLGKIVDRIDNDGDGFVTTEELKTWIKRVQKRYIFDNVAKVWKDYDRDKDDKISWEEYKQATYGYYLGNPAEFHDSSDHHTFKKMLPRDERRFKAADLNGDLTATREEFTAFLHPEEFEHMKEIVVLETLEDIDKNGDGFVDQDEYIADMFSHEENGPEPDWVLSEREQFNEFRDLNKDGKLDKDEIRHWILPQDYDHAQAEARHLVYESDKNKDEKLTKEEILENWNMFVGSQATNYGEDLTKNHDEL
B6: the C-term flag is given as 9, the “N-term FLAG” value amounted to 0, the “C-term IgG” value is on record as 0 and the “N-term IgG” value worked out at 0.

B7: PSMC2 (protein)
chain: PDYLGADQRKTKEDEKDDKPIRALDEGDIALLKTYGQSTYSRQIKQVEDDIQQLLKKINELTGIKESDTGLAPPALWDLAADKQTLQSEQPLQVARCTKIINADSEDPKYIINVKQFAKFVVDLSDQVAPTDIEEGMRVGVDRNKYQIHIPLPPKIDPTVTMMQVEEKPDVTYSDVGGCKEQIEKLREVVETPLLHPERFVNLGIEPPKGVLLFGPPGTGKTLCARAVANRTDACFIRVIGSELVQKYVGEGARMVRELFEMARTKKACLIFFDEIDAIGGARFDDGAGGDNEVQRTMLELINQLDGFDPRGNIKVLMATNRPDTLDPALMRPGRLDRKIEFSLPDLEGRTHIFKIHARSMSVERDIRFELLARLCPNSTGAEIRSVCTEAGMFAIRARRKIATEKDFLEAVNKVIKSYAKFSATPRYMTYN
As to B7, the C-term flag was found to be 0, the “N-term FLAG” value is reported as 2, the “C-term IgG” value is given as 0 and the “N-term IgG” value is recorded as 0.

B8: PGAM5 (protein)
chain: MAFRQALQLAACGLAGGSAAVLFSAVAVGKPRAGGDAEPRPAEPPAWAGGARPGPGVWDPNWDRREPLSLINVRKRNVESGEEELASKLDHYKAKATRHIFLIRHSQYHVDGSLEKDRTLTPLGREQAELTGLRLASLGLKFNKIVHSSMTRAIETTDIISRHLPGVCKVSTDLLREGAPIEPDPPVSHWKPEAVQYYEDGARIEAAFRNYIHRADARQEEDSYEIFICHANVIRYIVCRALQFPPEGWLRLSLNNGSITHLVIRPNGRVALRTLGDTGFMPPDKITRS
With B8, the C-term flag was found to be 5, the “N-term FLAG” value worked out at 4, the “C-term IgG” value is on record as 0 and the “N-term IgG” value amounted to 0.
